# Laboratory results taken from the supplement of paper PMC10567573.
# B1: RHOBTB2 (parent)
# chain: NQEITKAFHVRRTNRVKECLAKGT
# B2: RHOBTB3 (parent)
# chain: VSHVFMLLFNVKSPTDIQDSSIIR
# Variants of: B1
# Experiment: protein stability index of a GFP-peptide fusion (GPS, HEK-293T) (PSI 1-6); higher = more stable
# Details: c terminus: a fixed tail appended
# 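Note: lentivirally expressed fusions sorted by FACS into six bins by GFP to DsRed ratio, PSI derived from sequencing read proportions per bin multiplied by bin number.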
row,Variant,protein stability index
1,K22L,2.61
2,K22W,2.06
3,K22D,3.64
4,K22A,4.19
5,K22M,2.73
6,K22R,3.67
7,K22Q,3.28
8,K22S,3.86
9,K22T,3.74
10,K22F,1.88
11,K22N,3.18
12,K22H,3.03
13,K22E,3.87
14,K22P,3.04
15,K22C,3.3
16,K22V,2.3
17,K22I,2.58
18,T24W,2.69
19,T24P,3.65
20,T24V,2.7
21,T24D,3.46
22,T24L,3.53
23,T24C,2.19
24,T24K,3.88
25,T24N,3.36
26,T24S,3.61

row,Variant,protein stability index
1,T24M,2.86
2,T24R,2.7
3,T24F,1.81
4,T24A,3.55
5,T24H,3.32
6,T24G,2.92
7,T24I,2.16
8,L20H,2.84
9,L20K,3.83
10,L20R,2.74
11,L20W,2.22
12,L20Y,2.58
13,L20P,2.39
14,L20T,3.45
15,L20D,3.98
16,L20N,3.27
17,L20F,3.44
18,L20S,4.04
19,L20I,4.41
20,L20E,4.03
21,L20Q,3.74
22,L20G,2.97
23,L20V,4.62
24,L20M,3.59
25,A21W,2.28
26,A21C,1.94

row,Variant,protein stability index
1,A21N,3.42
2,A21V,2.8
3,A21L,2.61
4,A21E,3.63
5,A21D,3.83
6,A21K,3.15
7,A21H,2.35
8,A21F,2.85
9,A21T,3.73
10,A21I,2.27
11,A21Y,2.83
12,A21M,2.23
13,A21P,3.38
14,A21Q,2.65
15,A21S,2.48
16,G23E,3.64
17,G23C,2.67
18,G23Q,2.99
19,G23A,2.73
20,G23K,4.17
21,G23S,3.11
22,G23P,3.25
23,G23D,2.73
24,G23Y,2.26
25,G23W,2.61
26,G23F,2.07

row,Variant,protein stability index
1,G23R,2.82
2,G23N,3.02
3,G23T,2.66
4,G23I,2.61
5,G23L,2.56
6,G23V,1.75
7,G23H,2.84
8,C19E,3.45
9,C19Q,3.35
10,C19K,3.46
11,C19I,2.5
12,C19R,2.9
13,C19N,3.27
14,C19G,3.41
15,C19P,3.11
16,C19M,2.78
17,C19T,3.65
18,C19D,3.13
19,C19H,2.59
20,C19F,2.77
21,C19Y,2.33
22,C19W,2.35
23,C19A,3.42
24,C19V,3.08
25,C19S,2.81

# Variants of: B2
# Experiment: as above
# Details: c terminus: a fixed tail appended
row,Variant,protein stability index
1,F5K,1.84
2,F5H,2.29
3,F5T,1.71
4,F5Y,3.79
5,F5I,2.31
6,F5G,1.19
7,F5D,2.29
8,F5M,1.44
9,F5Q,1.95
10,F5A,1.5
11,F5S,1.95
12,F5L,4.65
13,F5N,1.97
14,F5V,3.38
15,F5P,2.04
16,F5E,2.3
17,F5R,1.41
18,F5C,2.99
19,V1I,3.46
20,V1Q,2.22
21,V1D,2.05
22,V1N,1.89
23,V1E,2.08
24,V1F,2.54

row,Variant,protein stability index
1,V1P,3.42
2,V1K,1.05
3,V1A,2.98
4,V1W,3.32
5,V1L,1.33
6,V1S,2.88
7,V1M,3.38
8,T15K,5.21
9,T15W,1.62
10,T15F,3.38
11,T15C,3.31
12,T15G,2.76
13,T15I,2.23
14,T15S,5.07
15,T15V,3.4
16,T15Y,2.63
17,T15L,2.3
18,T15N,3.26
19,T15R,4.51
20,N10H,3.06
21,N10A,2.47
22,N10C,1.43
23,N10P,2.3
24,N10D,3.9

row,Variant,protein stability index
1,N10L,3.27
2,N10G,2.24
3,N10V,2.13
4,N10T,2.15
5,N10I,2.19
6,N10W,3.77
7,S13D,2.36
8,S13E,2.99
9,S13L,3.37
10,S13K,2.17
11,S13M,3.52
12,S13F,3.32
13,S13T,3.82
14,S13I,4.29
15,S13H,2.37
16,S13Y,2.31
17,S13C,4.63
18,V4D,2.16
19,V4R,3.04
20,V4G,2.28
21,V4M,2.52
22,V4C,4.79
23,V4E,1.3
24,V4Y,1.61

row,Variant,protein stability index
1,V4S,1.89
2,V4Q,3.13
3,V4N,1.19
4,V4P,2.12
5,V4F,4.42
6,V4K,1.97
7,V4T,2.54
8,V4W,2.46
9,M6I,2.83
10,M6H,2.87
11,M6L,3.66
12,M6T,2.99
13,M6R,1.77
14,M6D,2.26
15,M6Y,3.18
16,M6P,1.59
17,M6V,3.62
18,M6N,2.98
19,M6C,1.98
20,M6A,3
21,M6S,2.2
22,M6F,3.03
23,M6K,1.42
24,M6G,2.29

row,Variant,protein stability index
1,M6E,2.43
2,M6Q,2.24
3,V11Q,1.82
4,V11S,3.03
5,V11I,3.24
6,V11G,3.8
7,V11R,3.03
8,V11F,2.74
9,V11E,2.08
10,V11H,3.04
11,V11D,1.23
12,V11P,2.94
13,V11L,4.23
14,V11M,3.81
15,V11C,3.03
16,V11N,3.13
17,V11W,2.83
18,P14I,3.62
19,P14Y,3.96
20,P14E,2.14
21,P14V,3.52
22,P14C,5.86
23,P14G,4.07
24,P14H,2.54

row,Variant,protein stability index
1,P14S,3.49
2,P14L,2.04
3,P14M,1.72
4,P14W,3.15
5,P14F,3.75
6,P14K,2.58
7,P14A,3.26
8,P14D,2.34
9,S2W,2.82
10,S2V,3.75
11,S2Y,2.75
12,S2G,2.58
13,S2A,2.55
14,S2K,3.57
15,S2N,2.84
16,S2M,3.95
17,S2L,3.13
18,S2F,3.6
19,S2D,2.44
20,I17L,2.92
21,I17K,1.51
22,I17E,1.9
23,I17H,2.01
24,I17C,3.7

row,Variant,protein stability index
1,F9D,1.45
2,F9T,1.57
3,F9G,1.69
4,F9A,1.92
5,F9N,1.93
6,F9Q,1.5
7,F9E,2.21
8,F9Y,4.01
9,F9S,2.61
10,F9C,2.44
11,F9R,2.74
12,F9H,1.63
13,F9I,2.62
14,F9L,3.21
15,F9P,1.55
16,F9K,2.21
17,F9W,3.94
18,L7K,1.59
19,L7H,3.82
20,L7Q,2.23
21,L7G,2.25
22,L7T,2.73
23,L7C,2.94
24,L7E,2.13

row,Variant,protein stability index
1,L7M,2.37
2,L7P,2.18
3,L7W,2.9
4,L7D,1.93
5,L7N,2.25
6,L7R,2.4
7,L7F,3.17
8,L7I,2.99
9,L7Y,2.77
10,L7A,1.74
11,L7V,2.34
12,L7S,1.72
13,D16C,2.82
14,D16N,3.77
15,D16T,2.99
16,D16S,2.63
17,D16H,3.02
18,D16R,3.86
19,D16Y,3.61
20,D16F,1.93
21,D16A,2.52
22,D16E,2.96
23,D16M,3.75
24,D16L,2.16

row,Variant,protein stability index
1,H3V,3.75
2,H3S,2.28
3,H3R,2.1
4,H3E,1.42
5,H3G,3.65
6,H3W,3.07
7,H3D,2.38
8,H3L,2.69
9,H3P,1.52
10,H3M,1.78
11,H3Q,2.51
12,L8G,2.55
13,L8E,1.36
14,L8D,1.81
15,L8M,2.95
16,L8N,2.46
17,L8S,2.78
18,L8K,2.71
19,L8H,2.23
20,L8Q,2.75
21,L8F,2.22
22,L8P,2.34
23,L8C,2.23
24,K12D,2.5

row,Variant,protein stability index
1,K12M,3.63
2,K12R,3.32
3,K12V,4.26
4,K12A,5.33
5,K12C,1.55
6,K12L,1.46
7,K12Y,1.81
8,K12T,1.98
9,K12Q,2.78
10,K12N,1.99
11,K12G,3.36
12,K12H,2.15
13,K12I,3.28
14,K12W,4.11
15,K12E,1.8
